Test results as given in patent US20200291135A1 (INSPIRNA, published 2020).

How the values were obtained:
[1] = target: T1, rhMer/Fc Chimera (recombinant human MERTK extracellular domain conjugated to an IgG Fc domain) (human, UniProt Q12866 21-505); assay: SPR, avidity format: rhMer/Fc Chimera immobilised on CM5 chip, antibody as analyte, 1:1 fit
T1 construct: extracellular domain; also called hMER recombinant protein; Mer-Fc conjugate; not shown: IgG Fc domain
T1 sequence (looked up): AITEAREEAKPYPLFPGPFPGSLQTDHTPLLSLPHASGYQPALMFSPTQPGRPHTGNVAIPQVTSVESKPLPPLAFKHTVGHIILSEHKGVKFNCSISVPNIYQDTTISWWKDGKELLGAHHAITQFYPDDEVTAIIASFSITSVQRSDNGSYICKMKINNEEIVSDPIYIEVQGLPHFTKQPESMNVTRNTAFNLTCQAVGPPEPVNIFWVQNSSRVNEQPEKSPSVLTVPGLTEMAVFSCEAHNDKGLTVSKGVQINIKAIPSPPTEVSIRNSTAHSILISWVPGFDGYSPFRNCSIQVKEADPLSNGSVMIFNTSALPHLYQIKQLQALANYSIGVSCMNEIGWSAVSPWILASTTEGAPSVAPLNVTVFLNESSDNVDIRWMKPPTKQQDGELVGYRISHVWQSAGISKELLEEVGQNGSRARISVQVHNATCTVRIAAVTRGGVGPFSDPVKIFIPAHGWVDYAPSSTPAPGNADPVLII
Method: With respect to avidity and affinity measurements using SPR, the protocols below were used.
The activator was prepared with a mixture of 400 mM EDC and 100 mM NHS immediately prior to injection. The CM5 sensor chip was activated for 420 s with the mixture. […] The chip was deactivated by 1 M ethanolamine-HCl. […] 8 concentrations (0.3125, 0.625, 1.25, 2.5, 5, 10, 20 and 40 nM) of the antibodies and running buffer were injected at a flow rate of 30 μL/min for an association phase of 240 s, followed by 4800 s dissociation. 10 mM glycine pH 1.5 as regeneration buffer was injected following every dissociation phase. The chip was regenerated with 10 mM glycine pH 1.5. One surface channel without capturing ligand was used as control surface for reference subtraction. Final data of each interaction was deducted from reference channel and buffer channel data. […] A molecular weight of 150 kDa was used to calculate the molar concentration of the antibodies.

[2] = target: T2, human Axl extracellular domain conjugated to an IgG Fc domain (human, UniProt P30530 26-451); assay: competition ELISA: soluble hAxl-Fc (varied) equilibrated with z10, free z10 caught on plate-coated hMER
T2 construct: extracellular domain; also called hAxl; human Ax1; not shown: IgG Fc domain
T2 sequence (looked up): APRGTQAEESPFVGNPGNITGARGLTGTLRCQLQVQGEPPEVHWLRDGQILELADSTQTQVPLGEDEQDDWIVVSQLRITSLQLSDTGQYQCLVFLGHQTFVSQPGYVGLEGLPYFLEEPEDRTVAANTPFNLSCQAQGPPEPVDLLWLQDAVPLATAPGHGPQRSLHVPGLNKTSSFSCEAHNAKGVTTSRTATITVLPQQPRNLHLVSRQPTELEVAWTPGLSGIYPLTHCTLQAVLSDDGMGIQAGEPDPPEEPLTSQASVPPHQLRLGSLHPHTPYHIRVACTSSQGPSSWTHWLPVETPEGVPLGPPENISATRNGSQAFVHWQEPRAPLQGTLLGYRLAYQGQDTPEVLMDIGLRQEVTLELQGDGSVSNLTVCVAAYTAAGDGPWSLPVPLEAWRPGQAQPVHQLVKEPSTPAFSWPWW
Method: (§1) Plates were washed three times with PBS 0.1% Tween and blocked with 3% non-fat dry skim milk in PBS for 2 h.
(§2) During the saturation step, dilutions of the antigen hAxl (RnD Systems, 154-AL-100), hTyro3 (RnD Systems, 859-DK-100) or mMER (RnD Systems, 591-MR-100)] were prepared at 50 nM as the highest concentration, and serially diluted 1:1 to 0.098 nM in PBS. […] Then, the saturated plate was washed three times with PBS 0.1% Tween and the antigen-antibody mixture was added to the wells in duplicate and incubated for 1 h at room temperature. The plate was then washed three times with PBS 0.1% Tween and incubated with anti-human Alkaline Phosphatase antibody (Sigma, SAB 3701248) at a dilution of 1:3000 in PBS for 1 h at room temperature. After washing three times with PBS 0.1% Tween, 100 uL of Alkaline Phosphatase Yellow (pNPP) liquid substrate system (Sigma, P7998) was added in each well and incubated for 70 min at room temperature. Plates were read at 405 nm and at 570 nm, to correct plate inconsistencies, using Glomax Discover System from Promega The absorbance was plotted as a function of antigen concentration and the Kd was calculated using GraphPad Prism 7.0c.

[3] = target: T3, murine MERTK extracellular domain conjugated to an IgG Fc domain (murine, UniProt Q60805 19-497); assay: competition ELISA: soluble mMer-Fc (varied) equilibrated with z10, free z10 caught on plate-coated hMER
T3 construct: extracellular domain; also called mMER; not shown: IgG Fc domain
T3 sequence (looked up): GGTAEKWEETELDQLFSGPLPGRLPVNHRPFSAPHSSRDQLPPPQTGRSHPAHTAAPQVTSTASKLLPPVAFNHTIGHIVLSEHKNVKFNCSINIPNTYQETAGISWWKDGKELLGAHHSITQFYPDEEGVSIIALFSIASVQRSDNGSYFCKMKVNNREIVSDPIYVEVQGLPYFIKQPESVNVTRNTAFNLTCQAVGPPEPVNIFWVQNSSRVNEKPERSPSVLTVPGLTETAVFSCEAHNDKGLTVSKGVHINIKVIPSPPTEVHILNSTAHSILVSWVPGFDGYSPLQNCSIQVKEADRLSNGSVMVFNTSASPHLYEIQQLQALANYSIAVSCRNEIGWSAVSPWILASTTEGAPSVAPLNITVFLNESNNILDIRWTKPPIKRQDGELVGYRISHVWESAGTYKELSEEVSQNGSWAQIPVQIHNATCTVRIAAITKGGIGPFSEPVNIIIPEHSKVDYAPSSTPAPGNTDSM
Method: as §1, §2

B1: z10 antibody (antibody, human IgG1, kappa, V domains shown)
VH: QVQLVQSGAEVKKPGASVKVSCKASGYTFTNYGMNWVRQAPGQGLEWMGWINTYTGEPTYADDFKGRVTFTTDTSTSTAYMELRSLRSDDMAVYYCARKSTVVSRYFDVWGQGTTVTVSS
VL: DIQMTQSPSFLSASVGDRVTITCKASQDVGDAVTWYQQKPGKAPKLLIYWASTRHTGVPDRFSGSGSGTDFTLTISSLQPEDFATYYCQQYRSYPLTFGQGTKLEIKR
notes: also called MERTK (z10) antibody
B1 was tested, and the Kd [1] was 5.74 pM, the binding result [2] was “no binding (tested: 50 nM)” and the binding result [3] was “no binding (tested: 50 nM)”.
